Measurements: publication PMC4701952, “Evolution of the Plant Reproduction Master Regulators LFY and the MADS Transcription Factors: The Role of Protein Structure in the Evolutionary Development of the Flower” (Frontiers in Plant Science, 2015)
“And” between values parts separate entries of the source, which are not always exact repeats. Equal values may be shown once.

B1: SEP3^(75-178) construct (wild type) (domain or fragment, A. thaliana, UniProt O22456 75-178, looked up)
chain: YGAPEPNVPSREALAVELSSQQEYLKLKERYDALQRTQRNLLGEDLGPLSTKELESLERQLDSSLKQIRALRTQFMLDQLNDLQSKERMLTETNKTLRLRLADG
notes: cloned into pESPRIT002 (N-terminal 6x-His tag followed by a TEV site); also called SEP3 K-domain; oligomerisation domain of SEP3; source: E. coli BL21 (DE3) CodonPlusRIL, purified (Ni-Sepharose, TEV cleavage, Superdex 200 SEC); not shown: His6, N-terminal, cleaved
B2: SEP3^(75-178) L115R (domain or fragment, A. thaliana, UniProt O22456 75-178, looked up)
chain: YGAPEPNVPSREALAVELSSQQEYLKLKERYDALQRTQRNRLGEDLGPLSTKELESLERQLDSSLKQIRALRTQFMLDQLNDLQSKERMLTETNKTLRLRLADG
notes: made with SEP3^(75-178) as the template; source: E. coli Rosetta2 (DE3) pLysS, purified (Ni-Sepharose, TEV cleavage, Superdex 200 SEC); not shown: His6, N-terminal, cleaved
B3: SEP3^(75-178) Y98K (domain or fragment, A. thaliana, UniProt O22456 75-178, looked up)
chain: YGAPEPNVPSREALAVELSSQQEKLKLKERYDALQRTQRNLLGEDLGPLSTKELESLERQLDSSLKQIRALRTQFMLDQLNDLQSKERMLTETNKTLRLRLADG
notes: as for B2
B4: SEP3^(75-178) L131V (domain or fragment, A. thaliana, UniProt O22456 75-178, looked up)
chain: YGAPEPNVPSREALAVELSSQQEYLKLKERYDALQRTQRNLLGEDLGPLSTKELESVERQLDSSLKQIRALRTQFMLDQLNDLQSKERMLTETNKTLRLRLADG
notes: as for B2
B5: SEP3^(75-178) L135A (domain or fragment, A. thaliana, UniProt O22456 75-178, looked up)
chain: YGAPEPNVPSREALAVELSSQQEYLKLKERYDALQRTQRNLLGEDLGPLSTKELESLERQADSSLKQIRALRTQFMLDQLNDLQSKERMLTETNKTLRLRLADG
notes: as for B2
B6: SEP3^(75-178) L135M (domain or fragment, A. thaliana, UniProt O22456 75-178, looked up)
chain: YGAPEPNVPSREALAVELSSQQEYLKLKERYDALQRTQRNLLGEDLGPLSTKELESLERQMDSSLKQIRALRTQFMLDQLNDLQSKERMLTETNKTLRLRLADG
notes: as for B2
B7: SEP3^(75-178) Y105N (domain or fragment, A. thaliana, UniProt O22456 75-178, looked up)
chain: YGAPEPNVPSREALAVELSSQQEYLKLKERNDALQRTQRNLLGEDLGPLSTKELESLERQLDSSLKQIRALRTQFMLDQLNDLQSKERMLTETNKTLRLRLADG
notes: as for B2
B8: SEP3^ΔC (domain or fragment, A. thaliana)
chain: MGRGRVELKRIENKINRQVTFAKRRNGLLKKAYELSVLCDAEVALIIFSNRGKLYEFCSSSSMLRTLERYQKCNYGAPEPNVPSREALAVELSSQQEYLKLKERYDALQRTQRNLLGEDLGPLSTKELESLERQLDSSLKQIRALRTQFMLDQLNDLQSKLADG
notes: also called SEP3 truncation mutant; source: in vitro translated (pSPUTK, Promega SP6 High Yield Expression System), used without further purification
B9: SEP3^L115R (natural protein, A. thaliana, UniProt O22456 1-251, looked up)
chain: MGRGRVELKRIENKINRQVTFAKRRNGLLKKAYELSVLCDAEVALIIFSNRGKLYEFCSSSSMLRTLERYQKCNYGAPEPNVPSREALAVELSSQQEYLKLKERYDALQRTQRNRLGEDLGPLSTKELESLERQLDSSLKQIRALRTQFMLDQLNDLQSKERMLTETNKTLRLRLADGYQMPLQLNPNQEEVDHYGRHHHQQQQHSQAFFQPLECEPILQIGYQGQQDGMGAGPSVNNYMLGWLPYDTNSI
notes: also called dimerisation-interface mutant; source: in vitro translated (pSPUTK, Promega SP6 High Yield Expression System), used without further purification
B10: SEP3^L171A (natural protein, A. thaliana, UniProt O22456 1-251, looked up)
chain: MGRGRVELKRIENKINRQVTFAKRRNGLLKKAYELSVLCDAEVALIIFSNRGKLYEFCSSSSMLRTLERYQKCNYGAPEPNVPSREALAVELSSQQEYLKLKERYDALQRTQRNLLGEDLGPLSTKELESLERQLDSSLKQIRALRTQFMLDQLNDLQSKERMLTETNKTARLRLADGYQMPLQLNPNQEEVDHYGRHHHQQQQHSQAFFQPLECEPILQIGYQGQQDGMGAGPSVNNYMLGWLPYDTNSI
notes: also called tetramerisation interface mutant; source: in vitro translated (pSPUTK, Promega SP6 High Yield Expression System), used without further purification

Legend:
[1] = target: the molecule itself; test: SEC; Superdex 200 10/300 GL in Buffer A (30 mM Tris pH 8.0, 300 mM NaCl, 5% glycerol, 2 mM TCEP); oligomeric state against the wild type protein; self-association
[2] = target: the molecule itself; test: native gel or EMSA; in vitro translated proteins (4 ul TnT mix, not purified) with 5-10 nM DY-682 labelled 121 bp SOC1 promoter DNA with two CArG boxes; complexes seen on DNA, assigned as putative dimer and tetramer
[3] = target: the molecule itself; test: native gel or EMSA; in vitro translated proteins (not purified) with Cy5 labelled SOC1 promoter DNA in which CArG box 1 or CArG box 2 is mutated (one site left)

Protein	stoichiometry N [1]	binding result [1]	also measured
B1	4 and 2	–	–
B2	–	binds	–
B3	2	–	–
B4	–	binds	–
B5	–	binds	–
B6	2	–	–
B7	4	–	–
B8	–	–	stoichiometry N [2]: 2
B9	–	–	stoichiometry N [2]: 2
B10	–	–	stoichiometry N [3]: 4
